Source: patent US20140199318A1

Molecular target: patient IgG preparation from the immunoadsorption column regenerate of an α1-AR agAAB positive patient with mild vascular dementia
Experiment: competition ELISA: free loop1 peptide (0.3 nM to 5 µM) preincubated with patient IgG, binding to immobilised loop1 peptide read

- EC50: 30 nM
Binder: LGYWAFGRVFCN [free (soluble) synthetic peptide corresponding to extracellular loop1 of the human α1-AR]
